Sequences and labels used below:
B1: M103205H795-MY208/M103202L889-SK1 (antibody, human IgG1, kappa)
heavy: QVTLKESGPVLVKPTETLTLTCTVSGIDLSHDDISWVRQAPGKGLEWVGIISYAGSTYYASWAKGRLTISKDTSKNQVVLTMTNMDPVDTATYYCARGVPAYSHGGDLWGQGTLVTVSSASTKGPSVFPLAPSSKSTSGGTAALGCLVKDYFPEPVTVSWNSGALTSGVHTFPAVLQSSGLYSLSSVVTVPSSSLGTQTYICNVNHKPSNTKVDKKVEPKSCDKTHTCPPCPAPELLNGPSVFLFPPKPKDTLMISRTPEVTCVVVDVSDEDPEVKFNWYVDGVEVHNAKTKPREELYNSTYRVVSVLTVLHQDWLNGKEYKCKVSNKALPAPIEKTISKAKGQPREPQVYTLPPSREEMTKNQVSLTCLVKGFYPSDIAVEWESNGQPENNYKTTPPVLDSDGSFFLYSKLTVDKSRWQQGNVFSCSVMHEALHNHYTQKSLSLSP
light: DIVMTQSPATLSLSPGERATLSCTSSQSVYHANWLSWFQQKPGQPPKLLIYWASTLAYGVPSRFSGSGSGTDFTLTISSLQPEDAATYYCAGGYGGGRYAFGQGTKVEIKRTVAAPSVFIFPPSDEQLKSGTASVVCLLNNFYPREAKVQWKVDNALQSGNSQESVTEQDSKDSTYSLSSTLTLSKADYEKHKVYACEVTHQGLSSPVTKSFNRGEC
notes: Substitutions introduced into M103205H795-SG1; expressed with M103202L889-SK1 as light chain
B2: M103205H795-MY288/M103202L889-SK1 (antibody, human IgG1, kappa)
heavy: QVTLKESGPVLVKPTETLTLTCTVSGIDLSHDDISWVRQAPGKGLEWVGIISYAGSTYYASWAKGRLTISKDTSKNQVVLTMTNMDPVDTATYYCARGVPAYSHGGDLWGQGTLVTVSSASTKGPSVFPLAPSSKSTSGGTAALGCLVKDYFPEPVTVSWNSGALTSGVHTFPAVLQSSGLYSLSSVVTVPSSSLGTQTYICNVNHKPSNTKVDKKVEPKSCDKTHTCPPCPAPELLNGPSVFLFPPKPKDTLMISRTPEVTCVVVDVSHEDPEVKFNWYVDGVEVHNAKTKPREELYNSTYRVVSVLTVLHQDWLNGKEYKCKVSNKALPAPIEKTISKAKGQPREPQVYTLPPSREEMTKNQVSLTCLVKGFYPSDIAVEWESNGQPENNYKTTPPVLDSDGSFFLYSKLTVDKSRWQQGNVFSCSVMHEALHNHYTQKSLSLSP
light: B1 light
notes: as for B1
B3: M103205H795-MY289/M103202L889-SK1 (antibody, human IgG1, kappa)
heavy: B1 heavy with D270H, L297Q, A332K, P398M
light: B1 light
notes: as for B1
B4: M103205H795-MY211/M103202L889-SK1 (antibody, human IgG1, kappa)
heavy: B1 heavy with S241V, L297Q, K328T, A332K
light: B1 light
notes: as for B1
B5: M103205H795-MY210/M103202L889-SK1 (antibody, human IgG1, kappa)
heavy: B1 heavy with L297Q, K328T, A332K
light: B1 light
notes: as for B1
B6: M103205H795-MY212/M103202L889-SK1 (antibody, human IgG1, kappa)
heavy: B1 heavy with S241V, K328T, A332K
light: B1 light
notes: as for B1
B7: M103205H795-MY209/M103202L889-SK1 (antibody, human IgG1, kappa)
heavy: B1 heavy with K328T, A332K
light: B1 light
notes: as for B1

Experimental findings from patent US20200317768A1 (published 2020) are described below.

Substitutions are numbered along the chain they refer to.

A word on the Kd: it is the concentration at which binding is half-saturated.

The target in one assay is T1, cynomolgus monkey FcγRIIa2 extracellular domain, C-terminal His-tag (cynomolgus monkey).
T1 construct: also called cyno FcγRIIa2; cynoFcgRIIa2
T1 chain: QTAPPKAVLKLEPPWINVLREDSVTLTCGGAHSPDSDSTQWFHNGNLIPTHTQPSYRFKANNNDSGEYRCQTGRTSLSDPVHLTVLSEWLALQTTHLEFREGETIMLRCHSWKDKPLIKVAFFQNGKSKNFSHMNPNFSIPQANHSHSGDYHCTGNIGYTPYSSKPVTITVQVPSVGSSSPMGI
The assay is described as follows: SPR (Biacore), antibody captured, FcgR analyte. On the procedure: (§1) The kinetic analysis of interactions between these antibodies and FcγR was carried out using BIACORE® T200 or BIACORE® 4000 (GE Healthcare). HBS-EP+ (GE Healthcare) was used as the running buffer, and the measurement temperature was set to 25° C. A chip produced by immobilizing Protein A. Protein A/G or mouse anti-human IgG kappa light chain (BD Biosciences) onto a Series S Sensor Chip CM4 or CM5 (GE Healthcare) by the amine-coupling method was used. […] After the measurement, the antibody captured on the chip was washed off by allowing reaction with 10 mM glycine-HCl, pH1.5 and 25 mM NaOH so that the chip was regenerated and used repeatedly. The sensorgrams obtained as measurement results were analyzed by the 1:1 Langmuir binding model using the BIACORE® Evaluation Software to calculate the binding rate constant ka (L/mol/s) and dissociation rate constant kd (l/s), and the dissociation constant KD (mol/L) was calculated from these values. […] Regarding such interactions, KD values were calculated using the following 1:1 binding model described in BIACORE® T100 Software Handbook BR1006-48 Edition AE.
(§2) The behavior of interacting molecules according to the 1:1 binding model on BIACORE® can be described by Equation 1: Req=C·R max/(KD+C)+RI, wherein, Req is a plot of steady-state binding levels to analyte concentration. C is concentration, RI is bulk refractive index contribution in the sample, and Rmax is analyte binding capacity of the surface. When this equation is rearranged, KD can be expressed as Equation 2: KD=C·Rmax/(Req−RI)−C. KD can be calculated by substituting the values of Rmax, RI, and C into Equation 1 or Equation 2. From the current measurement conditions, RI=0, C=2 μmol/L can be used.
In general terms: SPR reads the build-up and loss of mass on a sensor chip optically.
Molecule B1 displayed a Kd of 1500 nM.

The molecule B2 yielded a Kd of 2000 nM.

As for B3, the Kd was determined as 1500 nM.

On to B4, for which the affinity, expressed as Kd, was 530 nM.

On to B5, for which the Kd was 840 nM.

In the case of B6, the Kd amounted to 530 nM.

B7 displayed a Kd of 690 nM.

The next assay concerns the target T2, human FcγRIIaR extracellular domain, C-terminal His-tag (human, UniProt P12318 34-217).
T2 construct: also called human FcγRIIa (type R); FcgRIIaR
T2 chain: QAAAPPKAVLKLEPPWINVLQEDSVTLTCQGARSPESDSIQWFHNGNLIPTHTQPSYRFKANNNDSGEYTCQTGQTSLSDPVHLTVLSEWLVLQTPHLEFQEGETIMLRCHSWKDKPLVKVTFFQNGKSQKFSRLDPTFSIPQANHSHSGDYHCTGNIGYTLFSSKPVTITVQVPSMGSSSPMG
The assay is described as follows: SPR (Biacore), antibody captured, FcgR analyte. On the procedure:
as §1, §2
Regarding B1, binding was characterised by a dissociation constant (Kd) of 21 µM.

Turning to B2, the dissociation constant (Kd) was 8.5 µM.

B3: the Kd was determined as 5.5 µM.

As for B4, binding was characterised by a dissociation constant (Kd) of 13 µM.

In the case of B5, the affinity, expressed as Kd, was 0.014 µM.

For B6, the Kd stood at 1.3 µM.

Consider B7, for which the Kd was found to be 0.68 µM.

The target in another assay is T3, human FcγRIIIaV extracellular domain, C-terminal His-tag (human, UniProt P08637 17-208).
T3 construct: also called human FcgRIIIaV; FcgRIIIaV
T3 sequence (P08637 17-208 F176V): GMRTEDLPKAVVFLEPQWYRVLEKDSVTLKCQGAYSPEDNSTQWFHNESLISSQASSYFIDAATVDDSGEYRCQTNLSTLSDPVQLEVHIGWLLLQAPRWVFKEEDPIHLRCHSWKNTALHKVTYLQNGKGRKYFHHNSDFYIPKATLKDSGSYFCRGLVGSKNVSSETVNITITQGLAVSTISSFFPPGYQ
The assay is described as follows: SPR (Biacore), antibody captured, FcgR analyte. On the procedure:
as §1, §2
In the case of B1, the Kd was 10 µM.

Molecule B2 returned a Kd of 68 µM.

Molecule B3 showed a Kd of 7.7 µM.

The molecule B4 yielded a Kd of 4.8 µM.

B5 gave a Kd of 51 µM.

On to B6, for which binding was characterised by a dissociation constant (Kd) of 6.5 µM.

As to B7, the Kd was 14 µM.

The target of a further assay is T4, cynomolgus monkey FcγRIIa1 extracellular domain, C-terminal His-tag (cynomolgus monkey).
T4 construct: also called cyno FcγRIIa1; cynoFcgRIIa1
T4 chain: T1 chain with T95P, A121T, K127I, S128A, N130K, N135D, Q142R
The experiment in a line: SPR (Biacore), antibody captured, FcgR analyte. On the procedure: as §1, §2
Regarding B1, the Kd worked out at 1200 nM.

For the molecule B2, the Kd is 1500 nM.

B3 showed a Kd of 1300 nM.

Consider B4, for which the Kd turned out to be 750 nM.

With B5, the Kd is 950 nM.

Take B6: the Kd was determined as 560 nM.

In turn, B7 showed a Kd of 830 nM.

The target of a further assay is T5, human FcγRIIaH extracellular domain, C-terminal His-tag (human, UniProt P12318 34-217).
T5 construct: also called human FcγRIIa (type H); FcgRIIaH
T5 sequence: T2 chain with R134H
The assay is described as follows: SPR (Biacore), antibody captured, FcgR analyte. On the procedure:
as §1, §2
B1 returned a Kd of 530 nM.

B2: binding was put at a Kd of 1400 nM.

B3: the Kd amounted to 830 nM.

Molecule B4 came in with a Kd of 1100 nM.

As for B5, binding was characterised by a dissociation constant (Kd) of 880 nM.

As for B6, the Kd was 800 nM.

Molecule B7 returned a Kd of 570 nM.

For another assay, the target named is T6, cynomolgus monkey FcγRIIb extracellular domain, C-terminal His-tag (cynomolgus monkey).
T6 construct: also called cyno FcγRIIb; cynoFcγRIIb
T6 chain: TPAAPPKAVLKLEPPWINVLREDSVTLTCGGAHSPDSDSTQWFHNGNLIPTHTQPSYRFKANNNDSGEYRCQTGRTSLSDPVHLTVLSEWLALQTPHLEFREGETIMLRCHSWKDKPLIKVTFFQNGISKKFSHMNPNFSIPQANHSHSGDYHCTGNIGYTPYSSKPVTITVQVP
The assay is described as follows: SPR (Biacore), antibody captured, FcgR analyte. On the procedure:
as §1, §2
With B1, the Kd was 640 nM.

For B2, the affinity, expressed as Kd, was 3200 nM.

For the molecule B3, the Kd came to 740 nM.

With B4, the affinity, expressed as Kd, was 470 nM.

B5: the Kd worked out at 250 nM.

Regarding B6, the dissociation constant (Kd) was 370 nM.

Consider B7, for which the Kd was determined as 190 nM.

A further assay concerns the target T7, cynomolgus monkey FcγRIIa3 extracellular domain, C-terminal His-tag (cynomolgus monkey).
T7 construct: also called cyno FcγRIIa3; cynoFcgRIIa3
T7 chain: T1 chain with K127I, N130K, H133P, Q142R
The experiment in a line: SPR (Biacore), antibody captured, FcgR analyte. On the procedure: as §1, §2
B1: the Kd turned out to be 5.7 µM.

B2 returned a Kd of 11 µM.

B3 gave a Kd of 86 µM.

B4: the Kd was found to be 2.7 µM.

B5 returned a Kd of 23 µM.

For B6, the Kd turned out to be 29 µM.

B7 came in with a Kd of 19 µM.

Another assay has as its target T8, human FcγRIIb extracellular domain, C-terminal His-tag (human, UniProt P31994 43-217).
T8 construct: also called human FcgRIIb; FcgRIIb
T8 sequence: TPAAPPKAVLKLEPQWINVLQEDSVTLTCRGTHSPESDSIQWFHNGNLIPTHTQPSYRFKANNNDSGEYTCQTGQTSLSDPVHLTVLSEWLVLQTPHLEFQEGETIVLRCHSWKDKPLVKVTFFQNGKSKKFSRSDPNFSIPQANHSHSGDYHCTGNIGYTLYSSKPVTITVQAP
The assay is described as follows: SPR (Biacore), antibody captured, FcgR analyte. On the procedure:
as §1, §2
The molecule B1 came in with a Kd of 12000 nM.

B2 had a Kd of 6200 nM.

Consider B3, for which the Kd is 2900 nM.

Consider B4, for which the Kd worked out at 520 nM.

Turning to B5, the affinity, expressed as Kd, was 980 nM.

B6 registered a Kd of 630 nM.

In turn, B7 yielded a Kd of 500 nM.

The next assay deals with T9, cynomolgus monkey FcγRIIIaS extracellular domain, C-terminal His-tag (cynomolgus monkey, UniProt Q8SPW2 21-206 at identity 1.00)).
T9 construct: also called cyno FcγRIIIaS; cynoFcγRIIIaS
T9 chain: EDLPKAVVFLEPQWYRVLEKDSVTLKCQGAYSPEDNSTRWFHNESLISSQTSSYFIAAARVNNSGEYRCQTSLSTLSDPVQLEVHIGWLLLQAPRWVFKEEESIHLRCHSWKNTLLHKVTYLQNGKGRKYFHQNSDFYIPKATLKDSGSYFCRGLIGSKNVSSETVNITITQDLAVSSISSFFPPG
The experiment in a line: SPR (Biacore), antibody captured, FcgR analyte. On the procedure:
as §1, §2
For B1, the affinity, expressed as Kd, was 2800 nM.

For B2, the Kd is 13000 nM.

As to B3, binding was put at a Kd of 5200 nM.

For B4, the Kd came to 5000 nM.

On to B5, for which binding was characterised by a dissociation constant (Kd) of 2400 nM.

B6 displayed a dissociation constant Kd of 2600 nM.

Regarding B7, the Kd is 2200 nM.
